B1: Torsin-1A (Homo sapiens), O14656 (parent)
chain: MKLGRAVLGLLLLAPSVVQAVEPISLGLALAGVLTGYIYPRLYCLFAECCGQKRSLSREALQKDLDDNLFGQHLAKKIILNAVFGFINNPKPKKPLTLSLHGWTGTGKNFVSKIIAENIYEGGLNSDYVHLFVATLHFPHASNITLYKDQLQLWIRGNVSACARSIFIFDEMDKMHAGLIDAIKPFLDYYDLVDGVSYQKAMFIFLSNAGAERITDVALDFWRSGKQREDIKLKDIEHALSVSVFNNKNSGFWHSSLIDRNLIDYFVPFLPLEYKHLKMCIRVEMQSRGYEIDEDIVSRVAEEMTFFPKEERVFSDKGCKTVFTKLDYYYDD

Variants of: B1
Details: with toip2_human TOR1AIP2, Q8NFQ8

| Variant | effect of a mutation on the interaction |
| --- | --- |
| E171Q | with no effect |

Variants of: B1
Details: with toip1_human TOR1AIP1, Q5JTV8
toip1_human TOR1AIP1, Q5JTV8, sequence (Q5JTV8 whole entry): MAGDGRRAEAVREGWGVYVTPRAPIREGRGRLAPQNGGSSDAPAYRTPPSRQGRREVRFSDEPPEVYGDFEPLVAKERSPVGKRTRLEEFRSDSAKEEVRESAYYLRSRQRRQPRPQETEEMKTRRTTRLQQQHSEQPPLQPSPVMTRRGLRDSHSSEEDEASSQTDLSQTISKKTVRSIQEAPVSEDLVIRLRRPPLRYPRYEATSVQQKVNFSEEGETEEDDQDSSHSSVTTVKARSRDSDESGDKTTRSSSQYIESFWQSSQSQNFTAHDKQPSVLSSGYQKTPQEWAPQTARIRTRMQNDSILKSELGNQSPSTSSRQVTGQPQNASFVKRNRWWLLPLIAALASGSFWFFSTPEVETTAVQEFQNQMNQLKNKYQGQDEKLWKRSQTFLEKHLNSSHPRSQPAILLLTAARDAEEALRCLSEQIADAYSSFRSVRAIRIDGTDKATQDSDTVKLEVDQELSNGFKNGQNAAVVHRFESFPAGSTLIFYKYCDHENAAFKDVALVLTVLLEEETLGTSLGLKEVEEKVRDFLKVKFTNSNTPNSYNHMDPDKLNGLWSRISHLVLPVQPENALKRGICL

| Variant | effect of a mutation on the interaction |
| --- | --- |
| E171Q | with no effect |
